Results from article PMC6315749 (Marine Drugs, 2018).

How the values were obtained:
[1] = molecular target: Aplysia californica acetylcholine-binding protein (Aplysia californica); assay: radioligand binding
[2] = molecular target: ligand-binding domain of the human nAChR α9 subunit, de-glycosylated, His-tagged (human) (UniProt Q9UGM1); assay: […] (20 mM Tris-HCl pH 8.0, 1 mg/mL BSA); […]

αO-conotoxin GeXIVA, globular isomer (peptide)
IC50 [1]: 2.9 µM

α-conotoxin RgIA, ribbon isomer (from UniProt P0C1D0 20-32) (peptide)
IC50 [1]: 1 µM

αO-conotoxin GeXIVA, beads isomer (peptide)
IC50 [1]: 2.9 µM | IC50 [2]: 1.63 µM

αO-conotoxin GeXIVA, ribbon isomer (peptide)
IC50 [1]: 2.9 µM

α-conotoxin RgIA, globular isomer (from UniProt P0C1D0 20-32) (peptide)
IC50 [1]: 0.194 µM | IC50 [2]: > 60 µM
